Each block holds one molecule with its values, some of them ahead of it.
Columns and labels:
[1] = system: MCF-7 adhesion to fibronectin; assay: Adhesion to extracellular matrix proteins assay, MCF-7; type: cell-based, human
Description: Adhesion to extracellular matrix proteins assay—The assay was done using the CYTOMATRIX™ screening kit from CHEMICON® (Kit #ECM205, Temecula, Calif.). The kit contains 96-well plates with strips coated with fibronectin, vitronectin, laminin, collagen-I, or collagen-IV. Subconfluent cell cultures were used for these studies. Cells (1×10^6 cells/mol) were seeded onto coated substrate and incubated at 37° C. for 1 hour in a CO2 incubator in PBS containing Ca^2+/Mg^2+ (200 μL per well). Adherent cells were fixed and stained. The plate was washed to remove unadhered cells and stained with 100 μL per well of MTS (Cell Titer Aq 96, PROMEGA®, Madison, Wis.) for 5 minutes at room temperature. Excess stain was removed with three PBS washes. Solubilization buffer [100 μL of a 50:50 mixture of 0.1 mol/L NaH2PO4 (pH 4.5) and 50% ethanol] was added to each well. Relative attachment was determined using absorbance readings (A540 nm-A570 nm).

CEA = target: T1, CEA (Homo sapiens, UniProt P06731); assay: Competitive CEA binding against HRP-labeled murine MN-15; settings: competition with HRP-labeled murine MN-15
T1 sequence (P06731 35-676): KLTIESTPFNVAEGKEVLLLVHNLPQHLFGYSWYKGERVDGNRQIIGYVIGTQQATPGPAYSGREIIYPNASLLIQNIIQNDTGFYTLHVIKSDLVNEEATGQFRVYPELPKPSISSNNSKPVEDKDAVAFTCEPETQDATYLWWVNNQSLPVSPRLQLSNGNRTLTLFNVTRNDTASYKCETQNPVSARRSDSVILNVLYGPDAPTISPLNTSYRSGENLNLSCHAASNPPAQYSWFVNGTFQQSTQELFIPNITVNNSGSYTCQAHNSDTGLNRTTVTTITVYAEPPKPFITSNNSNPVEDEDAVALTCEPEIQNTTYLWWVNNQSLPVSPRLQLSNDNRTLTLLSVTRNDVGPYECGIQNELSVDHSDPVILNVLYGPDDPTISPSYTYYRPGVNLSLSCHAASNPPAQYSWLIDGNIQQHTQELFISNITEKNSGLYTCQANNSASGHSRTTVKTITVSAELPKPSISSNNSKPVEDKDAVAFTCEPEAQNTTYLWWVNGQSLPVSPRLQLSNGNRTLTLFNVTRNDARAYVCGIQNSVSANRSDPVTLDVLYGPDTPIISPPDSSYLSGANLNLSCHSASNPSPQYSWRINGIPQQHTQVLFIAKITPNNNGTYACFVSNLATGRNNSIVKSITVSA
Description: To make a chimeric MN-15 antibody, the murine MN-15 variable region sequences were attached to human IgG1 constant region sequences, as described in Leung et al., Hybridoma 13:469 (1994). The sequences of the murine MN-15 VK (SEQ ID NO:9) and MN-15 VH (SEQ ID NO:10) used to construct the chimeric MN-15 (cMN-15) are shown in FIG. 2 and FIG. 3.

[2] = system: MCA38 (CEACAM5−/CEACAM6−) adhesion to HUVEC; assay: Endothelial cell adhesion assay, MCA38; type: cell-based, murine; settings: 10 μg/mol Fab′
Description: Percentage adhesion of various tumor cells with varying amounts of expressed CEACAM5 and CEACAM6 to HUVEC cells in the absence or presence of MN-15 Fab′, MN-3 Fab′, or Ag8 Fab′ control. Cells were labeled with 1 μCi/mL of ^3H-thymidine and added to HUVEC cultures and incubated for 30 minutes at 37° C. Samples were washed thrice with PBS to remove unattached cells. Attached tumor cells were solubilized with 0.1 N NaOH and radioactivity was measured in a B-scintillation counter. The cpm attached/total cpm added (attaching potential) was determined. Results of a typical study are presented. Cell lines used include BT-20 (CEACAM5+/CEACAM6+), MCF-7 (CEACAM5−/CEACAM6+), HT-29 (CEACAM5−/CEACAM6+), Moser (CEACAM5+/CEACAM6−), MCA38cea (CEACAM5+/CEACAM6−), and MCA38 (CEACAM5−/CEACAM6−).
Endothelial cell adhesion assay—Human umbilical vein endothelial cells (HUVEC; Cambrex, San Diego, Calif.) were grown in collagen-coated dishes in EGM Media in a humidified atmosphere with 5% CO2 at 37° C. At passages 2 to 5, cells were plated at a density of 4×10^4 cells per well in 96-well plates 24 hours before the assay. Interleukin-1β (IL-1β, 1 ng/mol) was added 4 hours before the assay. […] Attached cells were solubilized with 0.1 N NaOH and radioactivity was measured in a β scintillation counter. The cpm attached/total cpm added (attaching potential) was determined.

- dissociation constant (CEA): nanomolar range
B1: MN-15: murine Class I anti-CEA MAb, IgG1 kappa, binds A1B1 domain of CEACAM5 and CEACAM6 (antibody, V domains shown)
VL: DIQLTQSPAIMSASPGEKVTMTCSASSRVSYIHWYQQKSGTSPKRWIYGTSTLASGVPARFSGSGSGTSYSLTISSMEAEDAATYYCQQWSYNPPTFGAGTKLELKR
VH: EVRLVESGGGLVQGPGSLRLSCAASGFALTDYYMSWVRQSPGKTLEWLGFIANKANGHTTDYSPSVKGRFTISRDNSQTILYLQMNTLRTEDSATYYCARDMGIRWNFDVWGQGTTVTVSS
- decrease of adhesion to fibronectin [1]: 29%

B2: MN-15 Fab′: monovalent Fab′ fragment of murine MN-15 (antibody, V domains shown)
VL: B1 VL
VH: B1 VH
- effect on tumor cell-endothelial cell adhesion [2]: neither MN-3 Fab′ targeting the N domain nor MN-15 Fab′ targeting the A1B1 domain of CEACAM6 had an effect
